Test results reported in the nanobody polyreactivity screen of Harvey et al. (2022).

Experiment: yeast display, Sf9 membrane polyspecificity reagent, FACS + sequencing; frameworks hold sequencing errors
Method in brief: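 A synthetic nanobody library was expressed on Saccharomyces cerevisiae BJ5465 by galactose induction for 36–48 hours. The library was stained for 1 hour at 4 °C with 10% biotinylated, detergent-solubilized Sf9 membrane reagent and enriched with streptavidin microbeads before FACS. Low and high (top ~1%) gates were set on anti-HA fluorescence for expression and streptavidin fluorescence for reagent binding, and each polyreactivity label reflects the gate of origin.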

| Sequence | polyreactivity (PSR sort gate) |
| --- | --- |
| QVQLVESGGGLVQAGGSLRLSCAASGSTFSGYAMGWYRQAPGKERELVAAITRSGGSTYYADSVKGRFTISRDNAKNTVYLQMNSLKPEDTAVYYCNVYFGYWVPTSTYYWSWDDYWGQGTQVTVSS | low polyreactivity |
| QVQLVESGGGLVQAGGSLRLSCAASGSTFSHYTMGSYRQAAGKERELVAAITRSGGSTYYADSVKGRFTISRDNAKNTVYLQMNSLKTEDSAVYYSAATRHWNILRYDYWGQGTQVTVSS | low polyreactivity |
| QVQLVESGGGLVQAGGSLRLSCAASGSTFSINAMGWYRQAPGKERELVAAITWRGTRTYYADSVKGRFTISRDNAKNTVYLQMNSLTPEDTAVYYCAATGSGQASYYYWGQGTQVTVSS | high polyreactivity |
| QVQLVESGGGLVQAGGSLRLSCAASGSTFSKNTMGWYRQAPGKERELVAAITTRGSSTYYADSVKGRFTISRDNAKNTVYLQMNSLKPEDTAVYYCAAGRYGWKHVWYYYWGQGTQVTVSS | high polyreactivity |
| QVQLVESGGGLVQAGGSLRLSCAASGSTFSLYDMGWYRQAPGKERELVAAIRWSGDSTYYADSVKGRFTISRDNAKNTVYLQMNSLKPEDTAVYYCAKDQSSPWDIQFLVYGGYEYWGQGTQVTVSS | low polyreactivity |
| QVQLVESGGGLVQAGGSLRLSCAASGSTFSNNAMAWYRQAPGKERELVAGINSSGGRTYYADSVKGRFTISRDNAKNTVYLQMISLKPEDTAVYYCAAESRYYYELGYWGQGTQVTVSS | high polyreactivity |
| QVQLVESGGGLVQAGGSLRLSCAASGSTFSPNAMGWYRQAPGKERELVAAITGGGSTYADSVKGRFTISRDNAKNTVYLQMNSLKPEDTAVYYCNRDYRSDLGYADQSWTDQYDYWGQGTQVTVSS | low polyreactivity |
| QVQLVESGGGLVQAGGSLRLSCAASGSTFSPNAMGWYRQAPGKERELVAAITYRGANTYYADSVKGRFTISRDNAKNTVYLQMNSLKPEDTAVYYCAAEYAYHHVGFGYWGQGTLVTVSS | low polyreactivity |
| QVQLVESGGGLVQAGGSLRLSCAASGSTFSPNVMGWYRQAPGKERELVAAISSSTGSTNYADSVKGRFTISRDNAKNTVYLQMNSLKPEDTAVDYCAVDPYVHWTTKLYDYWGQGTLVTVSS | low polyreactivity |
| QVQLVESGGGLVQAGGSLRLSCAASGSTFSPYAMGGSRQAPGKEREVVAAINSGSSTNYADSVKGRFTISRDNAKNTVYFQMNSLKPEDTAVYYCAADGQLPPRGILASWEFDYWGQGTQVTVSS | low polyreactivity |
| QVQLVESGGGLVQAGGSLRLSCAASGSTFSPYAMGWYRQAPGKEREIVAAISWGDGSTYYADSVKGRFTISRDNAKNTVYLQINSLKPEDTAVYYCNVKPSARGAPLYDYWGQGTQVTVSS | high polyreactivity |
| QVQLVESGGGLVQAGGSLRLSCAASGSTFSPYAMGWYRQSPGKEMELVAVITSSGGDTYYADSVKGRFTISRDNAKNTVYLQMNSLKPEDTAVYYCAADWWVLGQLWFDYWGQGTQVTVSS | low polyreactivity |
| QVQLVESGGGLVQAGGSLRLSCAASGSTFSPYDMGWYRQAPGKERELVAAITYRGGSTYYADSVKGRFTISRDNAKNTVYLQMNSLKPEDTAVYYCAAEIYQYSYGGTGWTLDWGQGTQVTVSS | low polyreactivity |
| QVQLVESGGGLVQAGGSLRLSCAASGSTFSQNAMGWYRQAPGKERELVAAITSGGITYYADSVKGRFTISRDNAKNTVYLQMNSLKPEDTAVYYCAAVTPSGAHRSAYHPISDYWGQGTQVTVSS | low polyreactivity |
| QVQLVESGGGLVQAGGSLRLSCAASGSTFSRNAMGWSRQAPGKERELVAAITRSGGSTYYADSVKGRFSISRDNAKNTVYLQMNSLKPEDTAVYYCAVLSVRRSYNYWGQGTQVTVSS | high polyreactivity |
| QVQLVESGGGLVQAGGSLRLSCAASGSTFSRYAMGWYRPAPGKERELVAAISRSGGTTYYADSVKGRFTISRDNAKNTVYLQMNSLKPEDTAVYYCNARGRYEYGYWGQGTQVTVSS | high polyreactivity |

| Sequence | polyreactivity (PSR sort gate) |
| --- | --- |
| QVQLVESGGGLVQAGGSLRLSCAASGSTFSRYAMGWYRQAPGKEMELVAAISWSGGSTYYADSVKGRFTISRDNAKNTVYLQMNSLKPEDTAVYYCAAYTYSFRANHDYWGQGTQVTVTS | high polyreactivity |
| QVQLVESGGGLVQAGGSLRLSCAASGSTFSRYAMGWYRQAPGKERELVAAIRRSAGSTYYADSVKGRFTISRDNAKNTVYLQMNSLKPEDTAVYYCAAAGRYDYWGQGTQVTVSS | high polyreactivity |
| QVQLVESGGGLVQAGGSLRLSCAASGSTFSRYAMGWYRQAPGKERELVAAISRSGGSTYYADSVKGRFTISRDNAKNTVYLQMNSLKPEDTAVYYCAKVTTYVSAWQGNGYWGQGTQVTVSS | high polyreactivity |
| QVQLVESGGGLVQAGGSLRLSCAASGSTFSRYAMGWYRQAPGKERELVAAISSDGTTYYADSVKGRFTISRDNAKNTVYLQMNSLKPEDTAVYYCAKRGYYRSRRYDYWGQGTQVTVSS | high polyreactivity |
| QVQLVESGGGLVQAGGSLRLSCAASGSTFSRYAMGWYRQAPGKVRELVAAISWGGNTYYADSVKGRFTISRDNAKNTVYLQMNSLKPEDTAVYYCNRYSKLYNTMDYWGQGTQVTVSS | high polyreactivity |
| QVQLVESGGGLVQAGGSLRLSCAASGSTFSRYTMGWYRQAPGKERELVAGISGIGGSTDYADSVKGRFTISRDNAKNTVYLQMNSLKPEDTAVYYCNAEYTASYSRGFWRYYYPFEYWGQGTQVTVSS | high polyreactivity |
| QVQLVESGGGLVQAGGSLRLSCAASGSTFSSYAMGWYRQAPGKERELVAATYYADSVKGRFTISRDNAKNTVYLQMNSLKPEDTAVYYCNADNAYQGGKEYDYWGQGTQVTVSS | low polyreactivity |
| QVQLVESGGGLVQAGGSLRLSCAASGSTFSSYVMGWYRQAPGKERELVAGITRGGRTYYADSVKGRFTISRDNAKNTVYLQMNSLKPEDTAVYYCAKDQGGVHELDYWGQGTQVTVSS | low polyreactivity |
| QVQLVESGGGLVQAGGSLRLSCAASGSTFSTNAMGWYRQAPGKERELVAAISRSGGRTYYADSVKGRFTISRDNAKNTVYLQMNSLKPEDTAVYYCNAVRRFASPSPHYYWGQGTQVTVSS | high polyreactivity |
| QVQLVESGGGLVQAGGSLRLSCAASGSTFSTNAMGWYRQAPGKERELVAAISRSGGSTYYADSVKGRFTISRDNAKNTFYLQMNSLKPEDTAVYYCARYSYRGTNVRYDYCGQGTQVTVSS | high polyreactivity |
| QVQLVESGGGLVQAGGSLRLSCAASGSTFSTYAMGWYRQAPGKERELVAAITAGGGSTYYADSVKGRFTISRDNAKNTVYLQMNSLKPEDTAVYYCAARSYYRFGGGYWGQGTQVTVSS | high polyreactivity |
| QVQLVESGGGLVQAGGSLRLSCAASGSTFSTYDMGWYRQAPGKEREFVAAISDSGGSTYYADSVKGRFTISRDNAKNTVYLQMNSLKPEDTAVYYCNATVVFVQYVDYDYWGQGTQVTVSS | low polyreactivity |
| QVQLVESGGGLVQAGGSLRLSCAASGSTFSVNAMGWYIQAPGKEREFVAAIRWPGGSTYYADSVKGRFTISRDNAKNTVYLQLNSLKPEDTAVYYCAARIKYRYDWGQGTQVTVSS | low polyreactivity |
| QVQLVESGGGLVQAGGSLRLSCAASGSTFSVYAMGWYRQAPGKERELVAAITWRGGTTYYADSVKGRFTISRDYAKNTVYLQMNSLKPEDTAVYYCNADWWRTLESDYWGQGTQVTVSS | low polyreactivity |
| QVQLVESGGGLVQAGGSLRLSCAASGSTFSVYAMGWYRQAPGKERELVASISSSVGRTFYADSVKGRFTISRDNAKNTVYLQMNSLKPEDTAVYYCAARSYQVKEYDHWGQGTQVTVSS | high polyreactivity |
| QVQLVESGGGLVQAGGSLRLSCAASGSTFSVYGMGWYRQAPGKERELVAAISGSGSRTYYADSVKGRFTISRDNAKNTVYLQMNSLKPEDTAVYYCAAVRRLLQGRTMYYWGQGTQVTVSS | high polyreactivity |
